Test results as given in paper PMC6527014.

Legend:
[1] = biological target: recombinant SCM (Streptococcus canis M protein), mature wild type (Streptococcus canis (strain G361)); test: SPR
[2] = biological target: SCM on the surface of S. canis strain G361 (Streptococcus canis (endogenous in strain G361)); test: radioligand binding; inhibition: S. canis G361 with iodinated full-length SCM after pre-incubation with non-iodinated SCM, N-225 or C-226 (5 µg in the text, 1 µM in the legend)
[3] = biological target: SCM on the surface of S. canis strain G361 (Streptococcus canis (endogenous in strain G361)); test: radioligand binding; iodinated protein (chloramine T) incubated with whole bacteria; percentage binding of totally used iodinated protein

For SCM fragment N-225, which Kd ([1]; domain or fragment) is on record?
Its Kd is 58.5 nM.

With SCM fragment N-225 (domain or fragment) as the substance, how does the percent of iodinated SCM bound to G361 with the unlabelled competitor [2] read?
Its percent of iodinated SCM bound to G361 with the unlabelled competitor is 6.8%.

For “recombinant SCM (Streptococcus canis M protein), mature wild type”, which Kd ([1]; natural protein) is on record?
The Kd was 4120 nM.

Which percent of iodinated SCM bound to G361 with the unlabelled competitor [2] does the source give for “recombinant SCM (Streptococcus canis M protein), mature wild type (natural protein)” here?
Its percent of iodinated SCM bound to G361 with the unlabelled competitor is 4.4%.

And the percent of the iodinated protein bound [3]?
Its percent of the iodinated protein bound is 24.1%.
